# From the supplement of paper PMC11908140
# B1: library; numbered along this chain (parent)
# chain: MRKPRAAVGSGHRKQAASQEGRQKHAKNNSQAKPSACDGLARQPEEVVLQASVSSYHLFRDVAEVTAFRGSLLSWYDQEKRDLPWRRRAEDEMDLDRRAYAVWVSEVMLQQTQVATVINYYTGWMQKWPTLQDLASASLEEVNQLWAGLGYYSRGRRLQEGARKVVEELGGHMPRTAETLQQLLPGVGRYTAGAIASIAFGQATGVVDGNVARVLCRVRAIGADPSSTLVSQQLWGLAQQLVDPARPGDFNQAAMELGATVCTPQRPLCSQCPVESLCRARQRVEQEQLLASGSLSGSPDVEECAPNTGQCHLCLPPSEPWDQTLGVVNFPRKASRKPPREESSATCVLEQPGALGAQILLVQRPNSGLLAGLWEFPSVTWEPSEQLQRKALLQELQRWAGPLPATHLRHLGEVVHTFSHIKLTYQVYGLALEGQTPVTTVPPGARWLTQEEFHTAAVSTAMKKVFRVYQGQQPGTCMGSKRSQVSSPCSRKKPRMGQQVLDNFFRSHISTDAHSLNSAAQ
# Variants of: B1
# Assay: 8OG:A repair function score (normalized; synonymous = 0, nonsense = -1) (normalized log-likelihood score); higher = more repair activity (WT-like)
# Settings: with 8OG:A DNA repair reporter (GFP) in HEK-293 MUTYH KO cells
# Outline: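 After 72 h, viable mCherry+ cells were split into GFP+ (repair) and GFP− bins in three replicates per tile. These cells were MUTYH knockout HEK-293 cells holding lentiviral MUTYH cDNA NNN codon-scan libraries, kept in 10 pg/ml doxycycline and co-transfected with mCherry plus an 8OG:A GFP repair reporter. Sequencing of tile amplicons gave per-tile Rosace fitness scores, normalized into a repair function score anchored on synonymous and nonsense distributions. Synonymous medians were fixed at 0, nonsense at -1, and variants under 300 counts per million at the start were removed.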
# 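Note: cells sorted at 72 h after reporter transfection.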
row,Variant,8OG:A repair function score
1,MRKPRAAVGSGHRKQAASQEGRQKHAKNNSQAKPSACDGLARQPEEVVLQASVSSYHLFRDVAEVTAFRGSLLSWYDQEKRDLPWRRRAEDEMDLDRRAYAVWVSEVMLQQTQVATVINYYTGWMQKWPTLQDLASASLEEVNQLWAGLGYYSRGRRLQEGARKVVEELGGHMPRTAETLQQLLPGVGRYTAGAIASIAFGQATGVVDGNVARVLCRVRAIGADPSSTLVSQQLWGLAQQLVDPARPGDFNQAAMELGATVCTPQRPLCSQCPVESLCRARQRVEQEQLLASGSLSGSPDVEECAPNTGQCHLCLPPSEPWDQTLGVVNFPRKASRKPPREESSATCVLEQPGALGAQILLVQRPNSGLLAGLWEFPSVTWEPSEQLQRKALLQELQRWAGPLPATHLRHLGEVVHTFSHIKLTYQVYGLALEGQTPVTTVPPGARWLTQEEFHTAAVSTAMKKVFRVYQGQQPGTCMGSKRRQVSSPCSRKKPRMGQQVLDNFFRSHISTDAHSLNSAAQ [S483R],0.0251
2,MRKPRAAVGSGHRKQAASQEGRQKHAKNNSQAKPSACDGLARQPEEVVLQASVSSYHLFRDVAEVTAFRGSLLSWYDQEKRDLPWRRRAEDEMDLDRRAYAVWVSEVMLQQTQVATVINYYTGWMQKWPTLQDLASASLEEVNQLWAGLGYYSRGRRLQEGARKVVEELGGHMPRTAETLQQLLPGVGRYTAGAIASIAFGQATGVVDGNVARVLCRVRAIGADPSSTLVSQQLWGLAQQLVDPARPGDFNQAAMELGATVCTPQRPLCSQCPVESLCRARQRVEQEQLLASGSLSGSPDVEECAPNTGQCHLCLPPSEPWDQTLGVVNFPRKASRKPPREESSATCVLEQPGALGAQILLVQRPNSGLLAGLWEFPSVTWEPSEQLQRKALLQELQRWAGPLPATHLRHLGEVVHTFSHIKLTYQVYGLALEGQTPVTTVPPGARWLTQEEFHTAAVSTAMKKVFRVYQGQQPGTCMGSKRNQVSSPCSRKKPRMGQQVLDNFFRSHISTDAHSLNSAAQ [S483N],0.0224
3,MRKPRAAVGSGHRKQAASQEGRQKHAKNNSQAKPSACDGLARQPEEVVLQASVSSYHLFRDVAEVTAFRGSLLSWYDQEKRDLPWRRRAEDEMDLDRRAYAVWVSEVMLQQTQVATVINYYTGWMQKWPTLQDLASASLEEVNQLWAGLGYYSRGRRLQEGARKVVEELGGHMPRTAETLQQLLPGVGRYTAGAIASIAFGQATGVVDGNVARVLCRVRAIGADPSSTLVSQQLWGLAQQLVDPARPGDFNQAAMELGATVCTPQRPLCSQCPVESLCRARQRVEQEQLLASGSLSGSPDVEECAPNTGQCHLCLPPSEPWDQTLGVVNFPRKASRKPPREESSATCVLEQPGALGAQILLVQRPNSGLLAGLWEFPSVTWEPSEQLQRKALLQELQRWAGPLPATHLRHLGEVVHTFSHIKLTYQVYGLALEGQTPVTTVPPGARWLTQEEFHTAAVSTAMKKVFRVYQGQQPGTCMGSKRWQVSSPCSRKKPRMGQQVLDNFFRSHISTDAHSLNSAAQ [S483W],-0.033
4,MRKPRAAVGSGHRKQAASQEGRQKHAKNNSQAKPSACDGLARQPEEVVLQASVSSYHLFRDVAEVTAFRGSLLSWYDQEKRDLPWRRRAEDEMDLDRRAYAVWVSEVMLQQTQVATVINYYTGWMQKWPTLQDLASASLEEVNQLWAGLGYYSRGRRLQEGARKVVEELGGHMPRTAETLQQLLPGVGRYTAGAIASIAFGQATGVVDGNVARVLCRVRAIGADPSSTLVSQQLWGLAQQLVDPARPGDFNQAAMELGATVCTPQRPLCSQCPVESLCRARQRVEQEQLLASGSLSGSPDVEECAPNTGQCHLCLPPSEPWDQTLGVVNFPRKASRKPPREESSATCVLEQPGALGAQILLVQRPNSGLLAGLWEFPSVTWEPSEQLQRKALLQELQRWAGPLPATHLRHLGEVVHTFSHIKLTYQVYGLALEGQTPVTTVPPGARWLTQEEFHTAAVSTAMKKVFRVYQGQQPGTCMGSKRVQVSSPCSRKKPRMGQQVLDNFFRSHISTDAHSLNSAAQ [S483V],0.0104
5,MRKPRAAVGSGHRKQAASQEGRQKHAKNNSQAKPSACDGLARQPEEVVLQASVSSYHLFRDVAEVTAFRGSLLSWYDQEKRDLPWRRRAEDEMDLDRRAYAVWVSEVMLQQTQVATVINYYTGWMQKWPTLQDLASASLEEVNQLWAGLGYYSRGRRLQEGARKVVEELGGHMPRTAETLQQLLPGVGRYTAGAIASIAFGQATGVVDGNVARVLCRVRAIGADPSSTLVSQQLWGLAQQLVDPARPGDFNQAAMELGATVCTPQRPLCSQCPVESLCRARQRVEQEQLLASGSLSGSPDVEECAPNTGQCHLCLPPSEPWDQTLGVVNFPRKASRKPPREESSATCVLEQPGALGAQILLVQRPNSGLLAGLWEFPSVTWEPSEQLQRKALLQELQRWAGPLPATHLRHLGEVVHTFSHIKLTYQVYGLALEGQTPVTTVPPGARWLTQEEFHTAAVSTAMKKVFRVYQGQQPGTCMGSKRPQVSSPCSRKKPRMGQQVLDNFFRSHISTDAHSLNSAAQ [S483P],0.0199
6,MRKPRAAVGSGHRKQAASQEGRQKHAKNNSQAKPSACDGLARQPEEVVLQASVSSYHLFRDVAEVTAFRGSLLSWYDQEKRDLPWRRRAEDEMDLDRRAYAVWVSEVMLQQTQVATVINYYTGWMQKWPTLQDLASASLEEVNQLWAGLGYYSRGRRLQEGARKVVEELGGHMPRTAETLQQLLPGVGRYTAGAIASIAFGQATGVVDGNVARVLCRVRAIGADPSSTLVSQQLWGLAQQLVDPARPGDFNQAAMELGATVCTPQRPLCSQCPVESLCRARQRVEQEQLLASGSLSGSPDVEECAPNTGQCHLCLPPSEPWDQTLGVVNFPRKASRKPPREESSATCVLEQPGALGAQILLVQRPNSGLLAGLWEFPSVTWEPSEQLQRKALLQELQRWAGPLPATHLRHLGEVVHTFSHIKLTYQVYGLALEGQTPVTTVPPGARWLTQEEFHTAAVSTAMKKVFRVYQGQQPGTCMGSKRTQVSSPCSRKKPRMGQQVLDNFFRSHISTDAHSLNSAAQ [S483T],-0.0473
